What was measured:
[1] = target: T1, human PlGF-1 (as used in Example 13; source not specified) (human) (UniProt P49763); experiment: … PlGF-1 assay; added sFlt-1 93 pM; 3.6 pM PlGF-1 without sFlt-1
T1 sequence: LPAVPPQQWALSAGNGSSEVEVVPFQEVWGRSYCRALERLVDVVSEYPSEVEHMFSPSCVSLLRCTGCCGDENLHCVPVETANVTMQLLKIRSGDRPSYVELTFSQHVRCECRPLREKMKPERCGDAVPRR

[2] = target: T1, human PlGF-1 (as used in Example 13; source not specified) (human); experiment: … PlGF-1 assay; added sFlt-1 93 pM; 6.8 pM PlGF-1 without sFlt-1
[3] = target: T1, human PlGF-1 (as used in Example 13; source not specified) (human); experiment: … PlGF-1 assay; added sFlt-1 186 pM; 3.6 pM PlGF-1 without sFlt-1
[4] = target: T1, human PlGF-1 (as used in Example 13; source not specified) (human); experiment: … PlGF-1 assay; added sFlt-1 186 pM; 6.8 pM PlGF-1 without sFlt-1
[5] = target: T1, human PlGF-1 (as used in Example 13; source not specified) (human); experiment: … PlGF-1 assay; added sFlt-1 389 pM; 3.6 pM PlGF-1 without sFlt-1
[6] = target: T1, human PlGF-1 (as used in Example 13; source not specified) (human); experiment: … PlGF-1 assay; added sFlt-1 389 pM; 6.8 pM PlGF-1 without sFlt-1
[7] = target: T1, human PlGF-1 (as used in Example 13; source not specified) (human); experiment: … PlGF-1 assay; added sFlt-1 788 pM; 3.6 pM PlGF-1 without sFlt-1
[8] = target: T1, human PlGF-1 (as used in Example 13; source not specified) (human); experiment: … PlGF-1 assay; added sFlt-1 788 pM; 6.8 pM PlGF-1 without sFlt-1
[9] = target: T1, human PlGF-1 (as used in Example 13; source not specified) (human); experiment: … PlGF-1 assay; added sFlt-1 93 pM; 13.3 pM PlGF-1 without sFlt-1
[10] = target: T1, human PlGF-1 (as used in Example 13; source not specified) (human); experiment: … PlGF-1 assay; added sFlt-1 93 pM; 27.1 pM PlGF-1 without sFlt-1
[11] = target: T1, human PlGF-1 (as used in Example 13; source not specified) (human); experiment: … PlGF-1 assay; added sFlt-1 93 pM; 40.5 pM PlGF-1 without sFlt-1
[12] = target: T1, human PlGF-1 (as used in Example 13; source not specified) (human); experiment: … PlGF-1 assay; added sFlt-1 186 pM; 13.3 pM PlGF-1 without sFlt-1
[13] = target: T1, human PlGF-1 (as used in Example 13; source not specified) (human); experiment: … PlGF-1 assay; added sFlt-1 186 pM; 27.1 pM PlGF-1 without sFlt-1
[14] = target: T1, human PlGF-1 (as used in Example 13; source not specified) (human); experiment: … PlGF-1 assay; added sFlt-1 186 pM; 40.5 pM PlGF-1 without sFlt-1
[15] = target: T1, human PlGF-1 (as used in Example 13; source not specified) (human); experiment: … PlGF-1 assay; added sFlt-1 389 pM; 13.3 pM PlGF-1 without sFlt-1
[16] = target: T1, human PlGF-1 (as used in Example 13; source not specified) (human); experiment: … PlGF-1 assay; added sFlt-1 389 pM; 27.1 pM PlGF-1 without sFlt-1
[17] = target: T1, human PlGF-1 (as used in Example 13; source not specified) (human); experiment: … PlGF-1 assay; added sFlt-1 389 pM; 40.5 pM PlGF-1 without sFlt-1
[18] = target: T1, human PlGF-1 (as used in Example 13; source not specified) (human); experiment: … PlGF-1 assay; added sFlt-1 788 pM; 13.3 pM PlGF-1 without sFlt-1
[19] = target: T1, human PlGF-1 (as used in Example 13; source not specified) (human); experiment: … PlGF-1 assay; added sFlt-1 788 pM; 27.1 pM PlGF-1 without sFlt-1
[20] = target: T1, human PlGF-1 (as used in Example 13; source not specified) (human); experiment: … PlGF-1 assay; added sFlt-1 788 pM; 40.5 pM PlGF-1 without sFlt-1
[21] = target: T1, human PlGF-1 (as used in Example 13; source not specified) (human); experiment: … PlGF-1 assay; added sFlt-1 1,181 pM; 3.6 pM PlGF-1 without sFlt-1
[22] = target: T1, human PlGF-1 (as used in Example 13; source not specified) (human); experiment: … PlGF-1 assay; added sFlt-1 1,181 pM; 6.8 pM PlGF-1 without sFlt-1
[23] = target: T1, human PlGF-1 (as used in Example 13; source not specified) (human); experiment: … PlGF-1 assay; added sFlt-1 1,181 pM; 13.3 pM PlGF-1 without sFlt-1
[24] = target: T1, human PlGF-1 (as used in Example 13; source not specified) (human); experiment: … PlGF-1 assay; added sFlt-1 1,181 pM; 27.1 pM PlGF-1 without sFlt-1
[25] = target: T1, human PlGF-1 (as used in Example 13; source not specified) (human); experiment: … PlGF-1 assay; added sFlt-1 1,181 pM; 40.5 pM PlGF-1 without sFlt-1
[26] = target: T1, human PlGF-1 (as used in Example 13; source not specified) (human); experiment: … PlGF-1 assay after 16 h incubation of PlGF-1 with sFlt-1 (data not shown)
[27] = target: T1, human PlGF-1 (as used in Example 13; source not specified) (human); experiment: … PlGF-1 assay after 16 h incubation of PlGF-1 with sFlt-1 up to 12 nM (data not shown)
[28] = target: recombinant human PlGF-1 (comprising amino acids 1-131) expressed in E. coli (R&D Systems) (human) (UniProt P49763); experiment: EIA of 24 well cultures, antibody captured on anti-mouse IgG Fc, biotin labeled human PlGF-1
[29] = target: recombinant human PlGF-1 (comprising amino acids 1-131) expressed in E. coli (R&D Systems) (human) (UniProt P49763); experiment: EIA of clone supernatants, antibody captured on anti-mouse IgG Fc, biotin labeled human PlGF-1
[30] = target: recombinant human PlGF-1 (comprising amino acids 1-131) expressed in E. coli (R&D Systems) (human) (UniProt P49763); experiment: EIA, supernatant antibody captured on anti-mouse IgG Fc, biotin labeled human PlGF-1 at 1500 pg/mL

B1: sFlt-1 (as used in Example 13; preparation not specified) (receptor, not shown: a dimerising Fc or GST; small tags and cut ends)
chain: SKLKDPELSLKGTQHIMQAGQTLHLQCRGEAAHKWSLPEMVSKESERLSITKSACGRNGKQFCSTLTLNTAQANHTGFYSCKYLAVPTSKKKETESAIYIFISDTGRPFVEMYSEIPEIIHMTEGRELVIPCRVTSPNITVTLKKFPLDTLIPDGKRIIWDSRKGFIISNATYKEIGLLTCEATVNGHLYKTNYLTHRQTNTIIDVQISTPRPVKLLRGHTLVLNCTATTPLNTRVQMTWSYPDEKNKRASVRRRIDQSNSHANIFYSVLTIDKMQNKDKGLYTCRVRSGPSFKSVNTSVHI
modifications: glycosylated; the chimera is dimerised through its Fc, if that preparation was the one used
- Measured Human PlGF-1 [1]: 1.5 pM
- percent change in measured PlGF-1 vs. no sFlt-1 [1]: -58%
- Measured Human PlGF-1 [2]: 3.1 pM
- percentage of inhibition [2]: -55%
- Measured Human PlGF-1 [3]: 1.2 pM
- percent change in measured PlGF-1 [3]: -65%
- Measured Human PlGF-1 [4]: 2.4 pM
- percent change in measured PlGF-1 vs. no sFlt-1 [4]: -65%
- Measured Human PlGF-1 [5]: 1.2 pM
- percent change in measured PlGF-1 versus without sFlt-1 [5]: -67%
- Measured Human PlGF-1 [6]: 2 pM
- percent change in measured PlGF-1 [6]: -70%
- Measured Human PlGF-1 [7]: 1.2 pM
- percent change in measured PlGF-1 versus no sFlt-1 [7]: -66%
- Measured Human PlGF-1 [8]: 1.9 pM
- percent change in measured PlGF-1 [8]: -72%
- Measured Human PlGF-1 [9]: 6.7 pM
- percent change in measured PlGF-1 [9]: -49%
- Measured Human PlGF-1 [10]: 15.6 pM
- percent change in measured PlGF-1 versus no sFlt-1 [10]: -42%
- Measured Human PlGF-1 [11]: 25.9 pM
- percent change in measured PlGF-1 [11]: -36%
- Measured Human PlGF-1 [12]: 4.9 pM
- percent change in measured PlGF-1 [12]: -63%
- Measured Human PlGF-1 [13]: 10.6 pM
- percent change in measured PlGF-1 vs. no sFlt-1 [13]: -61%
- Measured Human PlGF-1 [14]: 17.8 pM
- percent change in measured PlGF-1 [14]: -56%
- Measured Human PlGF-1 [15]: 3.8 pM
- percent change in measured PlGF-1 vs. no sFlt-1 [15]: -72%
- Measured Human PlGF-1 [16]: 7.5 pM
- percent change in measured PlGF-1 vs. no sFlt-1 [16]: -72%
- Measured Human PlGF-1 [17]: 12.2 pM
- percent change in measured PlGF-1 vs. no sFlt-1 [17]: -70%
- Measured Human PlGF-1 [18]: 3.3 pM
- percent change in measured PlGF-1 vs. no sFlt-1 [18]: -76%
- Measured Human PlGF-1 [19]: 6.1 pM
- percent change in measured PlGF-1 vs. without sFlt-1 [19]: -78%
- Measured Human PlGF-1 [20]: 9.2 pM
- percent change in measured PlGF-1 vs. without sFlt-1 [20]: -77%
- Measured Human PlGF-1 [21]: 1.3 pM
- percent change in measured PlGF-1 versus without sFlt-1 [21]: -64%
- Measured Human PlGF-1 [22]: 1.9 pM
- percent change in measured PlGF-1 vs. without sFlt-1 [22]: -72%
- Measured Human PlGF-1 [23]: 3 pM
- percent change in measured PlGF-1 [23]: -77%
- Measured Human PlGF-1 [24]: 5.4 pM
- percent change in measured PlGF-1 [24]: -80%
- Measured Human PlGF-1 [25]: 7.8 pM
- percent change in measured PlGF-1 versus no sFlt-1 [25]: -81%
- molar excess of sFlt-1 for 90% maximum inhibition [26]: 40 fold
- % inhibition of the human PlGF-1 assay [27]: 90%

B2: anti-human PlGF-1 monoclonal antibody from clone 1-255-189 (antibody, V domains shown)
VH: QVHLQQSGAELMKPGASVKISCKATGYTFSSYWIEWVKQRPGHGLEWIGEILPGSVSNNFNEKFKDKATLTADPSSNTAYIQVSSLTSEDSAVYYCARSTGFYYGGNYFDHWGQGTTLAVSS
VL: DVVMTQTPLSLPVSPGDQASISCRSSQSLVHSNGHTYLHWYLQKPGQSPKLLIYKVSNRFSGVPDRVSGSGSGTDFTLKISRVEAEDLGVYFCSQSTHVPPTFGGGTKLEIKR
- EIA signal relative to background (fold over background) [28]: > 3
- EIA signal relative to background (fold over background) [29]: > 3
- EIA signal relative to background (fold over background) [30]: 3

B3: anti-human PlGF-1 monoclonal antibody from clone 2-826-127 (antibody, V domains shown)
VH: QVQLKQSGPGLVQPSQSLSITCTVSGFSLTTYGIHWVRQSPGKGLEWLGVMWSGGDTDYDAAFISRLSISKDNSKSQVFFKMNSLQANDTGIYYCARYRFYGMDYWGQGTSVTVSS
VL: AIQMTQSSSSFSVSLGDRVTITCKASEDIYNRFAWYQQKPGNAPRLLISGAASLEAGVPSRFSGSGSGQDYTLSITSLQTEDVATYYCQQYWSTPWTFGGGTKLEIKR
- EIA signal relative to background (fold over background) [28]: > 3
- EIA signal relative to background (fold over background) [29]: > 3
- EIA signal relative to background (fold over background) [30]: > 3

From patent publication US20100015637A1 (AbbVie / Abbott, published 2010)
